Test results taken from patent US20060030524A1, “Treatment of systemic lupus erythematosus by down-regulating the autoimmune response to autoantigens” (Yeda Research and Development Co. Ltd., priority 1998, published 2006).

Columns and labels:
[1] = test system: MRL/MpJ-Fas^lpr mice; experiment: Prevention of spontaneous SLE in MRL/MpJ-Fas^lpr mice; assay type: in vivo; details: for heavy proteinuria, ^33 g/l (+++) at week 17 of age, mice affected/treated: peptides 100 μg i.p. in PBS at weeks 12, 18, 24, TCV 2×10^7 cells i.p. at 12 weeks; for death by week 33 of age, percent of mice / heavy proteinuria, ^33 g/l (+++) at week 17 of age, percent of mice: same treatments
From the text: Proteinuria was detected with Albustix strips (Bayer, Slough, UK). Leukocytes were counted from heparinized blood following 10-fold dilution in 1% acetic acid.
Thus, modulation of the p53 immune network should affect the course of SLE. A preliminary experiment was designed to see whether the spontaneous SLE development in MRL/MpJ-Fas^lpr mice might be influenced by administering to these mice peptides involved in the p53 network: the CDR peptides of the light and the heavy chain of PAb-421 depicted in FIG. 10 (administered as a mixture), or peptide 364-383 (residues 364-383 of SEQ ID NO:1) of the carboxy terminal domain of p53. The mice were intraperitoneally injected with 100 μg of the p53 peptide epitope of PAb-421 in PBS, or with 100 μg of peptides derived from variable region of PAb-421 in PBS at weeks 12,18, and 24 of age and followed for the development of SLE symptoms. […] Treatment with the peptides derived from the variable region of PAb-421 protected all five mice from development of proteinuria (0%; Table 2: 421: CDR). At week 33 of age, 5 of 6 non-treated mice (83%, cf. Table 2) were dead, whereas none of the mice treated with either peptide had died (0% each; see Table 2).
Also carried out was T cell vaccination against immunity to PAb-421. MRL/MpJ mice were immunized intradermally with 30 μg PAb-421 in complete Freund's adjuvant, followed by a boost in incomplete Freund's adjuvant. Cells derived from the draining lymph nodes, which were enriched for T cells reactive to PAb-421 and the p53 epitope peptide of PAb-421, were activated with 2 μg per ml Concanavalin A. Twelve week old MRL/MpJ-Fas^lpr mice were then injected intraperitoneally with 2×10^7 freshly activated and gamma-irradiated (2500 rad) cells per mouse. At 17 weeks of age, only 1 out of 8 treated mice […] developed severe proteinuria, while, in contrast, 6 out of 8 untreated control mice (75%) developed severe proteinuria. 421-TCV vs. not treated.

[2] = test system: single-stranded homooligomers (20-mers) of dG, dA, dC and dT; experiment: Band-shift assay with single-stranded homooligomers; assay type: binding; details: preliminary studies
From the text: Preliminary studies were done to define the oligonucleotide motifs recognized by IDI-1 and IDI-2 and to test whether p53 itself might bind the same oligonucleotide. Single-stranded homooligomers (20-mers) of dG, dA, dC and dT were used. […] Thus, dG is an important ligand for the anti-DNA monoclonal antibodies and for p53 itself. This further supports the presumptions that IDI-1 and IDI-2 mimic the carboxy terminal conformation of p53. In fact, the binding of the antibody to oligo dG is evidence that the antibody actually mimics the C-terminal domain of p53.

[3] = test system: PAb-421; experiment: Reactivity of monoclonal antibodies IDI-1 and IDI-2 to PAb-421; assay type: binding, mouse
Experimental: (§1) FIG. 7 is a graph showing the reactivities of monoclonal antibodies IDI-1 and IDI-2, which were selected for idiotypic binding to PAb-421. […] The binding to single-stranded or double-stranded calf thymus DNA was assessed by ELISA after the DNA had been gamma-irradiated with the indicated dosages (0-10,000 rad).
To generate such antibodies, BALB/c mice were immunized with PAb-421 and selected hybridomas producing anti-idiotypic antibodies that bound PAb-421 and could also bind DNA were isolated.
(§2) Two monoclonal antibodies, IDI-1 and IDI-2, could be isolated which had been selected for idiotypic binding to PAb-421 and their reactivities were determined. […] Thus, these two novel monoclonal antibodies of the present invention appear to mimic the DNA-binding specificity of p53. Thus, such antibodies could serve as models of the critical regulatory conformation of the carboxy-terminal domain of p53.

[4] = test system: single-stranded or double-stranded calf thymus DNA; experiment: ELISA binding of IDI-1 and IDI-2 to calf thymus DNA, with or without gamma-irradiation; details: for change of binding to single-stranded DNA after gamma-irradiation of the DNA: 0-10,000 rad, depending on the radiation dose; for reactivity to DNA (FIG. 7): single-stranded or double-stranded DNA
Experimental: as §1
For anti-DNA ELISA, a secondary antibody conjugated to horseradish peroxidase, and as substrate 1 mg/ml ABTS in 0.2 M citric acid, 0.2 M Na2HP04, and 3% H202 (all from Sigma) was used. The test antigens used were (Fab) 2 fragments of Ab2 anti-PAb-421, which were prepared as described (Harlow et al, 1988), recombinant p53, the p53 peptide epitope of PAb-421, histones or, after pre-coating with methylated BSA, calf thymus DNA (all from Sigma). All antibody titers are shown as the O. D. produced by the test sera at a dilution of 1:100. Dots represent individual sera, bars represent the median of each group.
as §2

[5] = test system: mouse antibodies other than PAb-421, like R73; experiment: Reactivity of IDI-1 and IDI-2 to control mouse antibodies; assay type: binding; details: control mAb
Experimental: as §1, §2

## 421-Epitope: p53 peptide SYLKTKKGQSTSRHKKTMVK, residues 364-383 of SEQ ID NO:1, carboxy terminal domain of p53 (listed as Mus sp.)
[1]; peptides 100 μg i.p. in PBS at weeks 12, 18, 24
  death by week 33 of age, mice dead/treated: 0/6
[1]
  heavy proteinuria, ^33 g/l (+++) at week 17 of age, mice affected/treated: 2/5
  death by week 33 of age, percent of mice: (0%)
  heavy proteinuria, ^33 g/l (+++) at week 17 of age, percent of mice: (33%)
[1]; listed as 421-epitope
  heavy proteinuria, ^33 g/l (+++) at week 17 of age, mice affected/treated: 2 out of 5
  death by week 33 of age, percent of mice: 0%
  heavy proteinuria, ^33 g/l (+++) at week 17 of age, percent of mice: 40%

B1: IDI-1: Ab2 monoclonal antibody anti-idiotypic to PAb-421 that binds DNA; VH and VL SEQ ID NOs:4 and 5 (antibody, listed as Mus sp., V domains shown)
VH: IPQVQLQQSGAELVRPGASVKLSCKASGYIFTSYWINWVRQRPGQGLEWIGNISPADSSTNYNQKFKDKATLTVDKSSTTAYMQLSRPTFEDSAVYYCAREEVRRRRDMDFWGQGTSVTVSSAKTTPPC
VL: RKLDIVITQDELSNPVTSGESVSISCRSRQSLLYKNGKTYLNWFLQRPGQSPQLLIYLMSIRASGVSDRFSGNGSGTDFTLEISRVRAEDVGVYYCQQLVEYPYTFGGGTKLEIKRADAAPT
modifications: BINDING (28)..(37) Complementary Determining Region; BINDING (27)..(42) Complementary Determining Region
[2]
  binding to homooligomers in band-shift assay: bound to the dG oligomer better than they did the others
[3]
  reactivity to PAb-421 (FIG. 7): specific reactivity
[4]
  change of binding to single-stranded DNA after gamma-irradiation of the DNA: markedly enhanced
  reactivity to DNA (FIG. 7): specific reactivity
[5]
  reactivity to mouse antibodies other than PAb-421: No reactivity

B2: IDI-2: Ab2 monoclonal antibody anti-idiotypic to PAb-421 that binds DNA; VH and VL SEQ ID NOs:6 and 7 (antibody, listed as Mus sp., V domains shown)
VH: QVQLQQSGPELVKPGASMKISCKASGYSFTGYTINWVKQSHGKNLEWIGLINPYNGGTCYNPKFKGKATLTVDKSSSTAYMELLSLTSEDSAVYYCARRVWLRRDGFYYAMDYWGQGTSVTVSSAKTTPP
VL: AVSLGQRATISCQASESVSFAGTSLMHWYQQKPGQPPKLLIYRASKLESGVPARFSGSGSESDFTLTIDPVEEDDAAMYYCMQSMEDPYTFGGGTKLEIKRADAAPTVSIFPPS
modifications: BINDING (26)..(35) Complementary Determining Region; BINDING (13)..(27) Complementary Determining Region
[2]
  binding to homooligomers in band-shift assay: bound to the dG oligomer better than they did the others
[3]
  reactivity to PAb-421 (FIG. 7): specific reactivity
[4]
  change of binding to single-stranded DNA after gamma-irradiation of the DNA: somewhat less
  reactivity to DNA (FIG. 7): specific reactivity
[5]
  reactivity to mouse antibodies other than PAb-421: No reactivity

B3: p53: recombinant mouse p53 protein expressed in E. coli (protein, UniProt P02340 1-390, looked up)
Cellular tumor antigen p53: MTAMEESQSDISLELPLSQETFSGLWKLLPPEDILPSPHCMDDLLLPQDVEEFFEGPSEALRVSGAPAAQDPVTETPGPVAPAPATPWPLSSFVPSQKTYQGNYGFHLGFLQSGTAKSVMCTYSPPLNKLFCQLAKTCPVQLWVSATPPAGSRVRAMAIYKKSQHMTEVVRRCPHHERCSDGDGLAPPQHLIRVEGNLYPEYLEDRQTFRHSVVVPYEPPEAGSEYTTIHYKYMCNSSCMGGMNRRPILTIITLEDSSGNLLGRDSFEVRVCACPGRDRRTEEENFRKKEVLCPELPPGSAKRALPTCTSASPPQKKKPLDGEYFTLKIRGRKRFEMFRELNEALELKDAHATEESGDSRAHSSYLKTKKGQSTSRHKKTMVKKVGPDSD
[2]
  binding to homooligomers in band-shift assay: bound to the dG oligomer better than they did the others
